How the values were obtained:
SEC = biological target: the molecule itself; assay: SEC
crystal structure = biological target: the molecule itself; assay: crystal structure

| Protein | stoichiometry N (SEC) | binding result (crystal structure) |
| --- | --- | --- |
| Escherichia coli SufS R92A (enzyme, E. coli, persulfide on C364 (as isolated; crystallographic occupancy 0.84); PLP, internal aldimine with K226) MIFSVDKVRADFPVLSREVNGLPLAYLDSAASAQKPSQVIDAEAEFYRHGYAAVHRGIHTLSAQATEKMENVRKRASLFINARSAEELVFVAGTTEGINLVANSWGNSNVRAGDNIIISQMEHHANIVPWQMLCARVGAELRVIPLNPDGTLQLETLPTLFDEKTRLLAITHVSNVLGTENPLAEMITLAHQHGAKVLVDGAQAVMHHPVDVQALDCDFYVFSGHKLYGPTGIGILYVKEALLQEMPPWEGGGSMIATVSLSEGTTWTKAPWRFEAGTPNTGGIIGLGAALEYVSALGLNNIAEYEQNLMHYALSQLESVPDLTLYGPQNRLGVIAFNLGKHHAYDVGSFLDNYGIAVRTGHHCAMPLMAYYNVPAMCRASLAMYNTHEEVDRLVTGLQRIHRLLG | 2 | – |
| Escherichia coli SufS E96A (enzyme, E. coli, persulfide on C364 (as isolated; crystallographic occupancy 0.80); PLP, internal aldimine with K226) MIFSVDKVRADFPVLSREVNGLPLAYLDSAASAQKPSQVIDAEAEFYRHGYAAVHRGIHTLSAQATEKMENVRKRASLFINARSAEELVFVRGTTAGINLVANSWGNSNVRAGDNIIISQMEHHANIVPWQMLCARVGAELRVIPLNPDGTLQLETLPTLFDEKTRLLAITHVSNVLGTENPLAEMITLAHQHGAKVLVDGAQAVMHHPVDVQALDCDFYVFSGHKLYGPTGIGILYVKEALLQEMPPWEGGGSMIATVSLSEGTTWTKAPWRFEAGTPNTGGIIGLGAALEYVSALGLNNIAEYEQNLMHYALSQLESVPDLTLYGPQNRLGVIAFNLGKHHAYDVGSFLDNYGIAVRTGHHCAMPLMAYYNVPAMCRASLAMYNTHEEVDRLVTGLQRIHRLLG | 2 | – |
| Escherichia coli SufS H55A (enzyme, E. coli, persulfide on C364 (as isolated; crystallographic occupancy 0.66); PLP, internal aldimine with K226) MIFSVDKVRADFPVLSREVNGLPLAYLDSAASAQKPSQVIDAEAEFYRHGYAAVARGIHTLSAQATEKMENVRKRASLFINARSAEELVFVRGTTEGINLVANSWGNSNVRAGDNIIISQMEHHANIVPWQMLCARVGAELRVIPLNPDGTLQLETLPTLFDEKTRLLAITHVSNVLGTENPLAEMITLAHQHGAKVLVDGAQAVMHHPVDVQALDCDFYVFSGHKLYGPTGIGILYVKEALLQEMPPWEGGGSMIATVSLSEGTTWTKAPWRFEAGTPNTGGIIGLGAALEYVSALGLNNIAEYEQNLMHYALSQLESVPDLTLYGPQNRLGVIAFNLGKHHAYDVGSFLDNYGIAVRTGHHCAMPLMAYYNVPAMCRASLAMYNTHEEVDRLVTGLQRIHRLLG | – | binds |
| Escherichia coli SufS E250A (enzyme, E. coli, persulfide on C364 (as isolated; crystallographic occupancy 0.63); PLP, internal aldimine with K226) MIFSVDKVRADFPVLSREVNGLPLAYLDSAASAQKPSQVIDAEAEFYRHGYAAVHRGIHTLSAQATEKMENVRKRASLFINARSAEELVFVRGTTEGINLVANSWGNSNVRAGDNIIISQMEHHANIVPWQMLCARVGAELRVIPLNPDGTLQLETLPTLFDEKTRLLAITHVSNVLGTENPLAEMITLAHQHGAKVLVDGAQAVMHHPVDVQALDCDFYVFSGHKLYGPTGIGILYVKEALLQEMPPWAGGGSMIATVSLSEGTTWTKAPWRFEAGTPNTGGIIGLGAALEYVSALGLNNIAEYEQNLMHYALSQLESVPDLTLYGPQNRLGVIAFNLGKHHAYDVGSFLDNYGIAVRTGHHCAMPLMAYYNVPAMCRASLAMYNTHEEVDRLVTGLQRIHRLLG | 2 | – |
